One assay deals with T1, DVL1 binding to FZD4 (Homo sapiens, UniProt O14640).
T1 construct: host or cells: HEK293
T1 sequence (O14640 1-695): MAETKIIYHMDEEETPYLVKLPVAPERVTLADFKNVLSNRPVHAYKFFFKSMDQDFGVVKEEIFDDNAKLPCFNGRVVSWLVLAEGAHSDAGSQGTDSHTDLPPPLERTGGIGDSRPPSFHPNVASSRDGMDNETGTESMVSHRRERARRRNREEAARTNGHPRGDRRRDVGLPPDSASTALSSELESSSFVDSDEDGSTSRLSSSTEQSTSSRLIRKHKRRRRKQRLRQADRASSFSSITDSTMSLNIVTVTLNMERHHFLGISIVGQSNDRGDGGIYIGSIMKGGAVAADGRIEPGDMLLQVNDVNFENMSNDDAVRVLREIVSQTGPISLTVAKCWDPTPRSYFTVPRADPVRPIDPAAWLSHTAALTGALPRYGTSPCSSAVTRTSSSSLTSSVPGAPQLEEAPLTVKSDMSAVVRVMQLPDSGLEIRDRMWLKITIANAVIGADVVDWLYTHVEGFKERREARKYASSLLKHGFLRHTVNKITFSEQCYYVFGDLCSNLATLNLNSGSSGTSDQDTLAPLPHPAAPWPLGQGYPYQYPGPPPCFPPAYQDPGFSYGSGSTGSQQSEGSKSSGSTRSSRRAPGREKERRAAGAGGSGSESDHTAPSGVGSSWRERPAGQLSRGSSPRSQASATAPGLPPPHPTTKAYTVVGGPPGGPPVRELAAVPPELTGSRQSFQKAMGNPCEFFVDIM
Description: Inhibition of DVL1 (DVL-GFP) recruitment by FZD4 at the plasma membrane of HEK293 cells. The note with it: HEK293 cells co-transfected with HA-FZD4 and GFP-DVL-1; 24 h treatment; read-out: EC50 ± SD DVL1 Binding Inhibition. The assay is classed as cell-based. The protocol: HEK293 cells were seeded in 96-well tissue culture plates at a density of 5 × 10 ^3/well. After 16–24 h seeding, cells were co-transfected with HA-FZD4-wt (0.04 µg/well) and GFP-tagged DVL-1 (0.04 µg/well) using PEI (0.25 µL/well) in a final volume of 100 µL/well. After 24 h of transfection, the medium was replaced and supplemented with the indicated compounds diluted in culture medium. After 24 h of treatment, cells were fixed in 3.7% formaldehyde freshly diluted in PBS for 30 min at RT, quenched with 0.1 M glycine/PBS for 30 min at RT, and washed with PBS. Samples were observed under a Leica confocal fluorescent microscope. Inhibition of DVL recruitment was measured by counting the percentage of cells losing GFP-DVL-1 localization on the PM. Experiments were performed in triplicate, and the standard deviations are indicated.
The crucial role played by PDZ domains in the spreading of cellular signals and their aberrant activations in many human diseases makes the PDZ domains very attractive targets for drug discovery. […] To identify new DVL1 inhibitors, we followed a virtual screening approach by fixing as the main filter a pharmacophoric model. We speculated that compound 2, the recently reported inhibitor of NHERF1 PDZ1 domain [26], may be able also to bind the DVL PDZ domain. The activity of compound 2 was assayed in HEK293 cells transiently expressing both HA-tagged-FZD4 (HA-FZD4) and the chimeric construct DVL-GFP. In the absence of HA-FZD4, DVL-GFP is localized in punctate intracellular structures known as signalosomes. In the presence of FZD-4 expression, DVL-GFP is recruited on the PM of the cell showing a drastic change in localization. As previously reported, drugs acting as inhibitors of FZD4/DVL binding reduce the amount of DVL-GFP recruited on the PM. […] Thus, we used the information gained from the binding mode of compound 2 to design a pharmacophore model that would lead to the identification of new DVL1 PDZ binders. At the same time, to better distinguish between the inhibitory activities of DVL1 and NHERF1, we added a new query to the pharmacophore model. Actually, comparing the PDZ structures of the studied proteins, we identified a significant difference. The upper part of the carboxylic binding loop was delimited by Tyr24, Ile79 and Val86 for NHERF1, while we observed Leu12, Val75 and Ile81, respectively, for DVL1. […] This peculiar feature of the DVL1 PDZ was included in our pharmacophore model by adding a hydrophobic query to obtain the required selectivity (Figure S1, Supplementary Materials). […] Thus, for each molecule, we obtained 10 conformations, and all of the proposed binding poses (7000 molecules per 10 conformations) were scored by the fitting to the pharmacophore model. […]

The next assay concerns the target HA-tagged FZD4wt (human) (UniProt Q9ULV1).

This note sets out measurements from PMC8909805, “Anticancer Activity of (S)-5-Chloro-3-((3,5-dimethylphenyl)sulfonyl)-N-(1-oxo-1-((pyridin-4-ylmethyl)amino)propan-2-yl)-1H-indole-2-carboxamide (RS4690), a New Dishevelled 1 Inhibitor” (Cancers, 2022).

For orientation: EC50 means the concentration that produces a half-maximal response.

Sequence of HA-tagged FZD4wt (human) (Q9ULV1 37-537): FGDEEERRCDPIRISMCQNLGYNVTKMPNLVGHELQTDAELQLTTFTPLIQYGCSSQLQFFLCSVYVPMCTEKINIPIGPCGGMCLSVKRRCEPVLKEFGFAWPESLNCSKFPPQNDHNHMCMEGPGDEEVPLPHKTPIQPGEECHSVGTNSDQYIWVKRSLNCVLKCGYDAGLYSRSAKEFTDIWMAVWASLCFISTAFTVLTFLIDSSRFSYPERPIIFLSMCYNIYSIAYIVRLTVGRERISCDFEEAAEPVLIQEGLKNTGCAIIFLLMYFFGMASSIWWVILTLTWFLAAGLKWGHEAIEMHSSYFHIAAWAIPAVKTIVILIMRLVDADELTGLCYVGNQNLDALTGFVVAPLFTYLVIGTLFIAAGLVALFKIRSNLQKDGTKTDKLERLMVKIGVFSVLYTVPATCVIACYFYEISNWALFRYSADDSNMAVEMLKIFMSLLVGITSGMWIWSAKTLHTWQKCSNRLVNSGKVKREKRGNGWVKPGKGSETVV

`O=C(Nc1ccc(CO)cc1)c1[nH]c2ccc(Cl)cc2c1Cc1ccccc1` [Compound 2, 3-benzyl-5-chloro-N-(4-(hydroxymethyl)phenyl)-1H-indole-2-carboxamide, reference compound]: on DVL1 binding to FZD4, the EC50 was 5.1 ± 0.09 µM.

B1: GFP-tagged DVL-1 (natural protein)
chain: T1 sequence (O14640 1-695)
Consider B1, for which, in the assay with HA-tagged FZD4wt (human), the EC50 of the small molecule 2 for inhibition of GFP-DVL-1 recruitment to the plasma membrane by HA-FZD4 in HEK293 cells (percentage of cells losing PM localisation; 'DVL1 Binding Inhibition') came to 5.1 µM, the EC50 of the small molecule (R)-1 for inhibition of GFP-DVL-1 recruitment to the plasma membrane by HA-FZD4 in HEK293 cells (percentage of cells losing PM localisation; 'DVL1 Binding Inhibition') was 29.5 µM and the EC50 of the small molecule (S)-1 for inhibition of GFP-DVL-1 recruitment to the plasma membrane by HA-FZD4 in HEK293 cells (percentage of cells losing PM localisation; 'DVL1 Binding Inhibition') was 0.49 µM.
